According to paper doi:10.1101/2025.10.03.680245 (bioRxiv, 2025):

Key:
[1] = biological target: the molecule itself; assay: negative-stain transmission electron microscopy
[2] = biological target: GFP-tagged Cdc11-capped recombinant septin octamers (budding yeast (S. cerevisiae), UniProt P32458;P32468;P32457;P25342); assay: fluorescence microscopy of purified proteins in solution

binding result [2]	Binder	binding result [1]
	Recombinant Cdc11-capped septin octamers (complex) chain 1: MSGIIDASSALRKRKHLKRGITFTVMIVGQSGSGRSTFINTLCGQQVVDTSTTILLPTDTSTEIDLQLREETVELEDDEGVKIQLNIIDTPGFGDSLDNSPSFEIISDYIRHQYDEILLEESRVRRNPRFKDGRVHCCLYLINPTGHGLKEIDVEFIRQLGSLVNIIPVISKSDSLTRDELKLNKKLIMEDIDRWNLPIYNFPFDEDEISDEDYETNMYLRTLLPFAIIGSNEVYEMGGDVGTIRGRKYPWGILDVEDSSISDFVILRNALLISHLHDLKNYTHEILYERYRTEALSGESVAAESIRPNLTKLNGSSSSSTTTRRNTNPFKQSNNINNDVLNPASDMHGQSTGENNETYMTREEQIRLEEERLKAFEERVQQELLLKRQELLQREKELREIEARLEKEAKIKQEE chain 2: MSAATATAAPVPPPVGISNLPNQRYKIVNEEGGTFTVMLCGESGLGKTTFINTLFQTVLKRADGQQHRQEPIRKTVEIDITRALLEEKHFELRVNVIDTPGFGDNVNNNKAWQPLVDFIDDQHDSYMRQEQQPYRTKKFDLRVHAVLYFIRPTGHGLKPIDIETMKRLSTRANLIPVIAKADTLTAQELQQFKSRIRQVIEAQEIRIFTPPLDADSKEDAKSGSNPDSAAVEHARQLIEAMPFAIVGSEKKFDNGQGTQVVARKYPWGLVEIENDSHCDFRKLRALLLRTYLLDLISTTQEMHYETYRRLRLEGHENTGEGNEDFTLPAIAPARKLSHNPRYKEEENALKKYFTDQVKAEEQRFRQWEQNIVNERIRLNGDLEEIQGKVKKLEEQVKSLQVKKSHLK chain 3: MSLKEEQVSIKQDPEQEERQHDQFNDVQIKQESQDHDGVDSQYTNGTQNDDSERFEAAESDVKVEPGLGMGITSSQSEKGQVLPDQPEIKFIRRQINGYVGFANLPKQWHRRSIKNGFSFNLLCVGPDGIGKTTLMKTLFNNDDIEANLVKDYEEELANDQEEEEGQGEGHENQSQEQRHKVKIKSYESVIEENGVKLNLNVIDTEGFGDFLNNDQKSWDPIIKEIDSRFDQYLDAENKINRHSINDKRIHACLYFIEPTGHYLKPLDLKFMQSVYEKCNLIPVIAKSDILTDEEILSFKKTIMNQLIQSNIELFKPPIYSNDDAENSHLSERLFSSLPYAVIGSNDIVENYSGNQVRGRSYPWGVIEVDNDNHSDFNLLKNLLIKQFMEELKERTSKILYENYRSSKLAKLGIKQDNSVFKEFDPISKQQEEKTLHEAKLAKLEIEMKTVFQQKVSEKEKKLQKSETELFARHKEMKEKLTKQLKALEDKKKQLELSINSASPNVNHSPVPTKKKGFLR chain 4: MDPLSSVQPASYVGFDTITNQIEHRLLKKGFQFNIMVVGQSGLGKSTLINTLFASHLIDSATGDDISALPVTKTTEMKISTHTLVEDRVRLNINVIDTPGFGDFIDNSKAWEPIVKYIKEQHSQYLRKELTAQRERFITDTRVHAILYFLQPNGKELSRLDVEALKRLTEIANVIPVIGKSDTLTLDERTEFRELIQNEFEKYNFKIYPYDSEELTDEELELNRSVRSIIPFAVVGSENEIEINGETFRGRKTRWSAINVEDINQCDFVYLREFLIRTHLQDLIETTSYIHYEGFRARQLIALKENANSRSSAHMSSNAIQR	binds
binds	MBP-Bud4ΔN-HALO (domain or fragment, HaloTag Alexa-Fluor 660 fluorescent ligand on the HALO tag) MKPSDYISIWHIQEEEIKSNSPESIANSQFSQQSSITTASTVDSKKDNGSTSFKFKPRIVSRSRIYNPKSRVSSLNYYDNEDYILSNSEWNALDPMRRNTLISKRIQDNIRTQKGHAPLIRPSIMKLNGEDSGFQNHFLEVEQPQEHENIPLSTHLSEQDITTNVGLDEQKLPTNTQDEAEISIREIESAGDITFNRGDLLSLSFDEELGQDFANFLDALDHDSTSFNHGPDDSSSFQRDSSKKSFNSLWESSYELKPPPSIRKQPIAPDVLQKLLESDTKDDADLEKIREERITEPRTGLGIGMLKTPVKDVSIALAASIKGYEASFSDTDSRPEGMNNSDAITLNMFDDFEEDKMTPSTPVRSISPIKRHVSSPFKVVKAGNKQENNEINIKAEEEIEPMTQQETDGLKQDIPPLLAQTKDNVEAKEETITQLEEPQDVEQEFPDMGTLYLSIKAISTLALYGTKSHRATYAIVFDNGENVVQTPWESLPYDGNIRINKEFELPIDFKGKAETSSASSERDSYKKCVITLKCKYEKPRHELVEIVDKVPVGKSFFGKTKYKFEKKYVQKKPKQDEWDYLFAQDGSFARCEIEINEEFLKNVAFNTSHMHYNMINKWSRIADKIHGSKRLYELPRKAPHKVASLDVEACFLERTSAFEQFPKQFSLVNKIVSKYKLQQNIYKEGYLLQDGGDLKGKIENRFFKLHGSQLSGYHEISRKAKIDINLLKVTKVLRNEDIQADNGGQRNFTDWVLFNECFQLVFDDGERITFNAECSNEEKSDWYNKLQEVVELNVFHQPWVKKYCEKLAEEEKTRTTGHNLKQDFN	
